In patent US20130288266A1 (ROCHE DIAGNOSTICS OPERATIONS, published 2013):
“And” between values parts separate entries of the source, which are not always exact repeats. Equal entries are not always repeated.

What was measured:
[1] = biological target: T1, human_HER3(1242-1267)-Bi-PEG-amide (human, C-terminal Bi-PEG-amide (biotin); singly grafted on streptavidin); assay: SPR kinetic screening (Biacore A100), mAb captured by anti-mouse IgG Fc, peptide singly grafted on streptavidin injected
T1 construct: Injected as analyte, singly grafted on streptavidin
T1 peptide: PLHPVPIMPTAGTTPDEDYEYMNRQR
Description: A Biacore™ A100 instrument under control of the software version V1.1 is used. A Biacore™ CM5 chip is mounted into the instrument and is hydrodynamically addressed conditioned according to the manufacturer's instructions. As a running buffer an HBS-EP buffer is used (10 mM HEPES (pH 7.4), 150 mM NaCl, 1 mM EDTA, 0.05% (w/v) P20). A polyclonal rabbit anti-mouse IgG Fc capture antibody is immobilized at 30 μg/ml in 10 mM sodium acetate buffer (pH 4.5) to spots 1, 2, 4 and 5 in flow cells 1, 2, 3 and 4 at 10,000 RU. The antibody is covalently immobilized via NHS/EDC chemistry. The sensor is deactivated thereafter with a 1 M ethanolamine solution. Spots 1 and 5 are used for the determination and spots 2 and 4 are used as reference. Prior to application to the sensor chip the hybridoma supernatants containing mAbs are diluted 1:2 in HBS-EP buffer. The diluted solution is applied at a flow rate of 30 μl/min for 1 min. […] Thereafter, the signal is recorded for 5 min dissociation time. The sensor is regenerated by injecting a 10 mM glycine-HCl solution (pH 1.7) for 2 min, at a flow rate of 30 μl/min. The dissociation rate constant kd (1/s) is calculated according to a Langmuir model using the evaluation software according to the manufacturer's instructions.

[2] = biological target: T2, IGF-1R(1340-1366)[1346-pTyr]amid, phosphorylated IGF-1R peptide (phosphotyrosine at 1346 (IGF-1R numbering); C-terminal amide; in Examples 2.6 and 2.7 a biotinylated PEG-linker bound via glutamic acid at position 1340); assay: SPR (Biacore 3000, 25 C), dual binder on biotinylated linker on SA chip, peptide injected; T40 linker (linker 10, spacer T20-Biotin-dT-T20)
T2 construct: also called pIGF-1R peptide; pIGF-1R
T2 peptide: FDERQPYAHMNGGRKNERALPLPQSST

[3] = biological target: T2, IGF-1R(1340-1366)[1346-pTyr]amid, …; assay: SPR (Biacore 3000, SA sensor, 25 C): both ssFab' hybridized on the immobilized biotinylated T40-Bi linker, peptide injected as analyte
Description: (§1) As a control, buffer was injected instead of the ssFabs.
(§2) The system was regenerated after each concentration step with a 12 sec pulse of 250 mM NaOH and was reloaded with ssFab′ ligand.

[4] = biological target: T3, IGF-1R(1340-1366)amid, non-phosphorylated IGF-1R peptide (C-terminal amide; in Example 2.6 a biotinylated PEG-linker bound via glutamic acid at position 1340); assay: as above
T3 construct: also called Glu(Bi-PEG-1340]amid
T3 peptide: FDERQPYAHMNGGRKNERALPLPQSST
Description: as §1, §2

[5] = biological target: T2, IGF-1R(1340-1366)[1346-pTyr]amid, …; assay: SPR (Biacore 3000, 25 C)
[6] = biological target: T4, IR (insulin receptor) in untreated IR overexpressing 3T3 cells (UniProt P06213 28-1382, limits assumed); assay: IHC (Ventana BenchMark XT), FFPE 3T3 cells
T4 construct: whole, on cells; also called IR (unstimulated)
Description: (§3) In order to test the specificity of the anti-pIGF-1R dual binder molecule an elaborate test system based on formalin-fixed paraffin-embedded (FFPE) 3T3 cells was used. 3T3 cells had been stably transfected with either IGF-1R or IR expression vectors. Cells were fixed with formalin and embedded in paraffin according to standard protocols. Prior to fixation cells were stimulated with 100 ng/ml of either IGF-1 or Insulin to induce IGF1-R or IR phosphorylation or were left untreated.
(§4) A biotin label within the linker molecule served as a detection tag for the streptavidin-based Ventana iVIEW DAB detection kit.

[7] = biological target: T5, phosphorylated IR in IR overexpressing 3T3 cells stimulated with Insulin (UniProt P06213 28-1382, limits assumed, phosphorylated after stimulation with 100 ng/ml Insulin); assay: IHC (Ventana BenchMark XT), FFPE 3T3 cells
T5 construct: whole, on cells; also called pIR (cells)
Description: as §3, §4

[8] = biological target: T2, IGF-1R(1340-1366)[1346-pTyr]amid, …; assay: SPR (Biacore 3000, 25 C), ssFab's on biotinylated 8xC18 linker on SA chip, pIGF-1R peptide injected
Description: (§5) The system was regenerated after each concentration step with a 12 sec pulse of 250 mM NaOH and was reloaded with ssFab ligand.

[9] = biological target: T2, IGF-1R(1340-1366)[1346-pTyr]amid, …; assay: SPR (Biacore 3000, SA sensor, 25 C): both ssFab' hybridized on the immobilized biotinylated 8xC18 linker, pIGF-1R peptide injected as analyte
Description: (§6) 89 RU amino-PEO-biotin were captured on the reference flow cell 1.
as §5

[10] = biological target: T2, IGF-1R(1340-1366)[1346-pTyr]amid, …; assay: SPR sandwich assay (Biacore T100, 13 C), FIG. 7
Description: A Biacore™ T100 instrument (GE Healthcare) was used with a Biacore™ CM5 sensor mounted into the system. The sensor was preconditioned by a 1 min injection at 100 μl/min of 0.1% SDS, 50 mM NaOH, 10 mM HCl and 100 mM H3PO4.
The Biacore™ T100 System was driven under the control software V1.1.1. Polyclonal rabbit IgG antibody <IgGFCγM>R (Jackson ImmunoResearch Laboratories Inc.) at 30 μg/ml in 10 mM Na-Acetate pH 4.5 was immobilized at 10 000 RU on the flow cells 1, 2, 3, and 4, respectively, via EDC/NHS chemistry according to the manufacturer's instructions. Finally, the sensor surface was blocked with 1M ethanolamine. The complete experiment was driven at 13° C.
3 μM of an IgG fragment mixture (of IgG classes IgG1, IgG2a, IgG2b, IgG3) containing blocking solution was injected at 30 μl/min for 5 min.

[11] = biological target: T4, IR (insulin receptor) in untreated IR …; assay: IHC (Ventana BenchMark XT), ssFab' on 8xC18 linker, FFPE 3T3 cells
Description: as §3, §4

[12] = biological target: T5, phosphorylated IR in IR overexpressing …; assay: as above
Description: as §3, §4

[13] = biological target: T2, IGF-1R(1340-1366)[1346-pTyr]amid, …; assay: SPR (Biacore 2000, 25 C), biotinylated peptide on SA chip, 100 nM ssFab' injected
Description: (§7) 100 nM of analyte (i.e. in these experiments a bi-valent dual binding agent) in solution was injected at 50 μl/min for 240 sec association time and dissociation was monitored for 500 sec. Efficient regeneration was achieved by using a 1 min injection step at 50 μl/min with 80 mM NaOH. Flow cell 1 served as a reference. A blank buffer injection was used instead of an antigen injection to double reference the data by buffer signal subtraction.
(§8) (The digoxigenylation of the middle thymidine (T(-Dig)) in the above linkers is without relevance to these experiments.)
(§9) Report points were set at the end of the analyte association phase (Binding Late, BL) and at the end of the analyte dissociation phase (Stability Late, SL) to monitor the response unit signal heights of each interaction. The dissociation rates kd (1/s) were calculated according to a linear 1:1 Langmuir fit using the Biacore™ evaluation software 4.1. The complex halftimes in minutes were calculated upon the formula In(2)/(60*kd).

[14] = biological target: T3, IGF-1R(1340-1366)amid, …; assay: as above
Description: as §7, §8, §9

[15] = biological target: T2, IGF-1R(1340-1366)[1346-pTyr]amid, …; assay: SPR (Biacore 3000, SA sensor, 25 C): only ssFab' 1.4.168 hybridized on the immobilized biotinylated T0-Bi linker, peptide injected as analyte
Description: as §1, §2

[16] = biological target: T3, IGF-1R(1340-1366)amid, …; assay: as above
Description: as §1, §2

[17] = biological target: T2, IGF-1R(1340-1366)[1346-pTyr]amid, …; assay: SPR (Biacore 3000, SA sensor, 25 C): only ssFab' 1.4.168 hybridized on the immobilized biotinylated T40-Bi linker, peptide injected as analyte
Description: as §1, §2

[18] = biological target: T3, IGF-1R(1340-1366)amid, …; assay: as above
Description: as §1, §2

[19] = biological target: T2, IGF-1R(1340-1366)[1346-pTyr]amid, …; assay: SPR (Biacore 3000, SA sensor, 25 C): only ssFab' 1.4.168 hybridized on the immobilized biotinylated 8xC18 linker, pIGF-1R peptide injected as analyte
Description: as §6, §5

[20] = biological target: T2, IGF-1R(1340-1366)[1346-pTyr]amid, …; assay: SPR (Biacore 3000, 25 C), dual binder on biotinylated linker on SA chip, peptide injected; T0 linker (no spacer)
[21] = biological target: T2, IGF-1R(1340-1366)[1346-pTyr]amid, …; assay: SPR (Biacore 3000, SA sensor, 25 C): both ssFab' hybridized on the immobilized biotinylated T0-Bi linker, peptide injected as analyte
Description: as §1, §2

[22] = biological target: T3, IGF-1R(1340-1366)amid, …; assay: as above
Description: as §1, §2

[23] = biological target: T6, IGF-1R in untreated IGF-1R overexpressing 3T3 cells (UniProt P08069 31-1367, limits assumed); assay: IHC (Ventana BenchMark XT), ssFab' on 8xC18 linker, FFPE 3T3 cells
T6 construct: whole, on cells; also called IGF-1R (unstimulated)
T6 sequence (P08069 31-1367 limits assumed): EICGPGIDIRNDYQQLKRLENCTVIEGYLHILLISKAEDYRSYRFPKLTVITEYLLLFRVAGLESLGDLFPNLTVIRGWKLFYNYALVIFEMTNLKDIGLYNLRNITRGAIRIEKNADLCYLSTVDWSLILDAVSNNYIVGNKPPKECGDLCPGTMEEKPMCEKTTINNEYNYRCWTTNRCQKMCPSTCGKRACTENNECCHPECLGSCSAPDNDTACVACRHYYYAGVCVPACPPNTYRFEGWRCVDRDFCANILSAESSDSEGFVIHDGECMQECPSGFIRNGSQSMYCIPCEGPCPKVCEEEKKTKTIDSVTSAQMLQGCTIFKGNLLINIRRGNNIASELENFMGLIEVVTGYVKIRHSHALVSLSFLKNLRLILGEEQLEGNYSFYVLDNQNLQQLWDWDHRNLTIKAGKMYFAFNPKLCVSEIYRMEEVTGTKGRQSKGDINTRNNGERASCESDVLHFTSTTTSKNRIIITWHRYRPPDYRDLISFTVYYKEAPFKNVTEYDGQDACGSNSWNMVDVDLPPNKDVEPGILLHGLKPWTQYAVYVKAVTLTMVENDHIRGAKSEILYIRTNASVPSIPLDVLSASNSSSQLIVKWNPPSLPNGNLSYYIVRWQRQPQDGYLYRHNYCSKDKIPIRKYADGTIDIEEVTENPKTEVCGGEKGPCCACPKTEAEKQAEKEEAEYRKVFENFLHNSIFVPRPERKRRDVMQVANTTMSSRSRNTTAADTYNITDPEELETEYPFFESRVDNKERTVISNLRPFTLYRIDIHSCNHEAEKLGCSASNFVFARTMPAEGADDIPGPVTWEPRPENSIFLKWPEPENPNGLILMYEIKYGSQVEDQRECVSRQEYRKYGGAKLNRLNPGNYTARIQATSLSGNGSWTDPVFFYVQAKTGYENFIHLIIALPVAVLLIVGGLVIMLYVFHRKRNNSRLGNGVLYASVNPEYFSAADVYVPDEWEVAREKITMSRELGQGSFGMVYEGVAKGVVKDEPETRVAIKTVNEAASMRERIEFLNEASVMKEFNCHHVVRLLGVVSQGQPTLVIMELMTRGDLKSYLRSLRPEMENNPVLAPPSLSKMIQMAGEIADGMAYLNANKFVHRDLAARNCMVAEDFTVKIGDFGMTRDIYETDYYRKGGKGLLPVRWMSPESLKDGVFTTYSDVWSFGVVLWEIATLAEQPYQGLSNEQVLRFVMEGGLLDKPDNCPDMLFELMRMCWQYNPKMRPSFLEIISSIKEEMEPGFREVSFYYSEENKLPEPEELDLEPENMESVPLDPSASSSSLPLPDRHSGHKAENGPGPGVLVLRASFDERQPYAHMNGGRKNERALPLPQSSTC
Description: as §3, §4

T4 sequence (P06213 28-1382 limits assumed): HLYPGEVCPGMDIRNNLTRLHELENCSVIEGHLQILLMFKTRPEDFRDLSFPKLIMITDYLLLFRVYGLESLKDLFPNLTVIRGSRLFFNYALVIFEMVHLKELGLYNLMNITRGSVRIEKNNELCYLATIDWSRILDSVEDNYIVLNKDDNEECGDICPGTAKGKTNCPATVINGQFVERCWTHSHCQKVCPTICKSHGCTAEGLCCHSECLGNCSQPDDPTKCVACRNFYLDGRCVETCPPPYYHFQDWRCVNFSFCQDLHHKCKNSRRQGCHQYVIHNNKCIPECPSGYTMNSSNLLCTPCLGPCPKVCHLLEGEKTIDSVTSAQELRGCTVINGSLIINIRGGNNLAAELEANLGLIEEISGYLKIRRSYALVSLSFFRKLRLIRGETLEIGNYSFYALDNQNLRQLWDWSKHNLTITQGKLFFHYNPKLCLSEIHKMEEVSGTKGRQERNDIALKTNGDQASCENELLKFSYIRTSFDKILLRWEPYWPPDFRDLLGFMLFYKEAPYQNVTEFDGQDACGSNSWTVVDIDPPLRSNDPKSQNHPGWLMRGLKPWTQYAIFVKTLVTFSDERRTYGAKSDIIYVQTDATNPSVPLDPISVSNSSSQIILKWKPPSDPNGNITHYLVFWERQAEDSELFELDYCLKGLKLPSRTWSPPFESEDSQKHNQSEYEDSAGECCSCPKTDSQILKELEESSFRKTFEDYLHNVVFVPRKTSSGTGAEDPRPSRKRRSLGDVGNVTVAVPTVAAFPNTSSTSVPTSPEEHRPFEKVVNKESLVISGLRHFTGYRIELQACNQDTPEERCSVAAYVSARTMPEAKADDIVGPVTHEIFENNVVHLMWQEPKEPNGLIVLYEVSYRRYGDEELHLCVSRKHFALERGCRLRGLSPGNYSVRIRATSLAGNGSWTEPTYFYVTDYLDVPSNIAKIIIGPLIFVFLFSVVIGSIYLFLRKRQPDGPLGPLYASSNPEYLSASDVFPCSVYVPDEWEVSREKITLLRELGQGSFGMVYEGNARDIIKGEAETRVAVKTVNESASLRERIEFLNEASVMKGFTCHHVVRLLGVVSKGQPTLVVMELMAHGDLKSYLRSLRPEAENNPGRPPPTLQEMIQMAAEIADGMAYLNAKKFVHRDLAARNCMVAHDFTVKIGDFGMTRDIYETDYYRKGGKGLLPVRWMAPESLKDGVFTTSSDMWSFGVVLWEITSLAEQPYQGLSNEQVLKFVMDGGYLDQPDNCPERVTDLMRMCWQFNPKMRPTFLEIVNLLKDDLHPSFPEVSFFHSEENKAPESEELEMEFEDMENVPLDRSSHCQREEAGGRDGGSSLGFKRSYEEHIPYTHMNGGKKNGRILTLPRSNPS
T5 sequence (P06213 28-1382 limits assumed): as above

B1: monoclonal antibody 7.2.32 directed against HER3(1242-1267) (antibody, V domains shown)
VH: EVQLQESGGGLVQPKGSLQLSCAASGFTFNTYAMHWVRQAPGKGLEWVARIRTESSDYATDYADSVKDRFIISRDDSQNMLYLQMNNLKSEDTAIYYCVRSSGFDYWGQGTTLTVSS
VL: DIQMTQSPSLPVSLGDQASISCRSSQSLVHDNGNTYLHWFLQKPGQSPKLLIYKVSNRFSGVPDRFGGSGSGTDFTLKISGVEAEDLGVYFCSQGTHVPTFGGGTKLEIK
notes: Mouse monoclonal IgG from hybridoma supernatant, captured by anti-mouse IgG Fc; also called mAb 7.2.32
B1 showed a koff [1] of 0.0023 s⁻¹.

B2: T40-T-Bi linker dual binder with ssFab' 8.1.2 and ssFab' 1.4.168 (linker 10 of example 2.4) (bispecific antibody, V domains shown)
VH 1: EVQLQQSGPALVKPGASVKMSCKASGFTFTSYVIHWVKQKPGQGLEWIGYLNPYNDNTKYNEKFKGKATLTSDRSSSTVYMEFSSLTSEDSAVYFCARRGIYAYDHYFDYWGQGTSLTVSS
VL 1: QIVLTQSPAIMSASPGEKVTLTCSASSSVNYMYWYQQKPGSSPRLLIYDTSNLASGVPVRFSGSGSVTSYSLTISRMEAEDAATYYCQQWSTYPLTFGAGTKLELK
VH 2: QCDVKLVESGGGLVKPGGSLKLSCAASGFTFSDYPMSWVRQTPEKRLEWVATITTGGTYTYYPDSIKGRFTISRDNAKNTLYLQMGSLQSEDAAMYYCTRVKTDLWWGLAYWGQGTLVTVSA
VL 2: QLVLTQSSSASFSLGASAKLTCTLSSQHSTYTIEWYQQQPLKPPKYVMELKKDGSHTTGDGIPDRFSGSSSGADRYLSISNIQPEDESIYICGVGDTIKEQFVYVFGGGTKVTVLG
modifications: 17 mer ssDNA (SEQ ID NO:6, fluorescein) on hinge cysteine; 19 mer ssDNA (SEQ ID NO:5, Cy5) on hinge cysteine
notes: Two Fab'-ssDNA conjugates hybridised on biotinylated 77-mer DNA linker 10 (T20-Biotin-dT-T20) captured on a streptavidin chip; also called T40-Bi
With B2 the Kd [2] was 0.01 nM, the Kd [3] was 0.0125 nM and the Kd [4] was 0.973 nM and 1 nM. The t1/2 diss [4] was 4.3 min.

B3: anti-pIGF-1R dual binder composed of ssFab' 1.4.168, ssFab' 30.4.33 and an 8xC18 linker molecule (linker 14 of example 2.4) (bispecific antibody, V domains shown)
VH 1: EVQLQESGPEVAKPGASVKMSCKASGYTFTDYIIHWVKQRPGQDLEWIGYINPYNDKSKYNEKFKDKATLTSDRSSSTSYMDLSTLTSDDSAVYYCTRHGYYRSDGFDYWGQGTTLTVSS
VL 1: DIVLTQSPTIMSASPGEKVTMTCRASSSVSSSSLHWYQQKPGSSPKLWIYSTSTLASGVPARFSGSGSGTSYSLTISGVETEDAATYYCQQYGTSPYTFGSGTKVDIK
VH 2: B2 VH 2
VL 2: B2 VL 2
modifications: 17 mer ssDNA (SEQ ID NO:6) on hinge cysteine; ssDNA oligonucleotide on the Fab' hinge region
notes: Two Fab'-ssDNA conjugates hybridised on biotinylated linker 14 ((Spacer C18)4-(Biotin-dT)-(Spacer C18)4)
B3 was tested, and the “fold affinity improvement compared to ssFab' 1.4.168 alone” value [5] was 300 fold, the “fold affinity improvement compared to ssFab' 30.4.33 alone” value [5] was 200 fold and the “fold lower off-rate than ssFab' 1.4.168” value [5] was 230 fold. For the same binder, the “fold lower off-rate than ssFab' 30.4.33” value [5] was 110 fold, the binding result [6] was “no binding (tested: 0.5 µg/ml per ssFab')” and the binding result [7] was “no binding (tested: 0.5 µg/ml per ssFab')”. For the same binder, the Kd [8] was ~0.01 nM, the koff [8] was 1.39e-05 s⁻¹ and the Kd [9] was 0.0112 nM and 0.011 nM. For the same binder, the kon [9] was 1.24e+06 M⁻¹ s⁻¹.

B4: murine monoclonal antibody M-1.4.168-IgG (antibody, V domains shown)
VH: DVKLVESGGGLVKPGGSLKLSCAASGFTFSDYPMSWVRQTPEKRLEWVATITTGGTYTYYPDSIKGRFTISRDNAKNTLYLQMGSLQSEDAAMYYCTRVKTDLWWGLAYWGQGTLVTVSA
VL: B2 VL 2
notes: Whole murine IgG from hybridoma; also called mAb 1.4.168; M-1.004.168-IgG
B4: binds [10].

B5: ssFab' 1.4.168 (Fab' of mAb 1.4.168 covalently linked to 17 mer ssDNA) (Fab, V domains shown)
VH: B4 VH
VL: B2 VL 2
modifications: 17 mer ssDNA comprising SEQ ID NO:6 with fluorescein, coupled through maleimide to a cysteine of the Fab' hinge region
notes: Fab' from pepsin cleavage and cysteamine reduction of a murine monoclonal IgG; also called ssFab' 1.004.168; fluorescein-ssFab' 1.4.168
For B5, the binding result [11] was “no binding (tested: 0.5 µg/ml)”, the binding result [12] was “no binding (tested: 0.5 µg/ml)” and the T1/2 dis [13] was 3 min. For the same binder, the T1/2 dis [14] was 3 min, the Kd [15] was 2.59 nM and 3 nM and the t1/2 diss [15] was 4 min. The Kd [16] was 1.35 nM and 1 nM, the t1/2 diss [16] was 4 min and the Kd [17] was 2.14 nM and 2 nM. For the same binder, the Kd [18] was 1.1 nM and 1 nM, the t1/2 diss [18] was 3 min and the Kd [19] was 2.96 nM and 3 nM.

B6: T0 dual binding agent with ssFab' 8.1.2 and ssFab' 1.4.168 on the biotinylated T0-Bi 37-mer ssDNA-Linker (linker 17 of example 2.4) (bispecific antibody, V domains shown)
VH 1: B2 VH 1
VL 1: B2 VL 1
VH 2: B2 VH 2
VL 2: B2 VL 2
modifications: 17 mer ssDNA (SEQ ID NO:6, fluorescein) on hinge cysteine; 19 mer ssDNA (SEQ ID NO:5, Cy5) on hinge cysteine
With B6 the Kd [20] was 0.03 nM, the Kd [21] was 0.0344 nM and the Kd [22] was 1.2 nM and 1 nM. The t1/2 diss [22] was 5 min.

B7: ssFab' 30.4.33 (Fab' of mAb 30.4.33 linked to ssDNA) (Fab, V domains shown)
VH: B3 VH 1
VL: B3 VL 1
modifications: ssDNA oligonucleotide coupled to the Fab' hinge region
B7: no binding (tested: 0.5 µg/ml) [23]; no binding (tested: 0.5 µg/ml) [11]; no binding (tested: 0.5 µg/ml) [12].
